The supplement of paper PMC7125110
± gives the standard error. Fewer inactive variants are shown than the library holds.

B1: glmS ribozyme (parent)
chain: AUAAAAGCGCCAGAACUACAGAAAUGUAGUUGACGAGGAGGAGGUUUAUCGAAUUUUCGGCGGAUGCCUCCAAA

Tests used:
Conditions in all cases: with glucosamine-6-phosphate
[1] = variants of: B1; assay: self-cleavage kobs at 160 uM GlcN6P; higher = faster cleavage; RNA array
How it was run: (§1)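 Over ~14 h at 37 °C, tiles were imaged as glucosamine-6-phosphate (40 μM to 10 mM) in HEPES/KCl/Mg(OAc)2 buffer flowed across sequenced MiSeq chips. The chips carried barcoded ribozyme variants transcribed in situ by E. coli RNA polymerase and tracked with a hybridised Cy3 probe. After normalisation to baseline and to non-cleaving reference variants, one- or two-exponential decay fits of per-tile medians gave kobs. kcat and KM followed from weighted Michaelis–Menten fits across concentrations.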

[2] = variants of: B1; assay: self-cleavage kobs at 640 uM GlcN6P; higher = faster cleavage; RNA array
How it was run: as §1

[3] = variants of: B1; assay: self-cleavage kobs at 2500 uM GlcN6P; higher = faster cleavage; RNA array
How it was run: as §1

[4] = variants of: B1; assay: self-cleavage kobs at 10000 uM GlcN6P; higher = faster cleavage; RNA array
How it was run: as §1

Variant: A14C G32U A52C
- self-cleavage kobs at 160 uM GlcN6P [1]: < 1e-05 s⁻¹
- self-cleavage kobs at 640 uM GlcN6P [2]: < 1e-05 s⁻¹
- self-cleavage kobs at 2500 uM GlcN6P [3]: < 1e-05 s⁻¹

Variant: G13A G40C C70G
- self-cleavage kobs at 160 uM GlcN6P [1]: < 1e-05 s⁻¹
- self-cleavage kobs at 640 uM GlcN6P [2]: < 1e-05 s⁻¹
- self-cleavage kobs at 2500 uM GlcN6P [3]: < 1e-05 s⁻¹
- self-cleavage kobs at 10000 uM GlcN6P [4]: < 1e-05 s⁻¹

Variant: A15C A33U A36C A48C
- self-cleavage kobs at 160 uM GlcN6P [1]: < 1e-05 s⁻¹
- self-cleavage kobs at 640 uM GlcN6P [2]: < 1e-05 s⁻¹
- self-cleavage kobs at 2500 uM GlcN6P [3]: < 1e-05 s⁻¹

Variant: G37U G44A A52U A53U
- self-cleavage kobs at 160 uM GlcN6P [1]: < 1e-05 s⁻¹
- self-cleavage kobs at 640 uM GlcN6P [2]: < 1e-05 s⁻¹
- self-cleavage kobs at 2500 uM GlcN6P [3]: < 1e-05 s⁻¹

Variant: A12G G43C G51U G63A U65C C68A
- self-cleavage kobs at 640 uM GlcN6P [2]: < 1e-05 s⁻¹
- self-cleavage kobs at 2500 uM GlcN6P [3]: < 1e-05 s⁻¹

Variant: G32A U54C C67U
- self-cleavage kobs at 640 uM GlcN6P [2]: 0.000136 ± 3.3e-05 s⁻¹
- self-cleavage kobs at 2500 uM GlcN6P [3]: 0.000349 ± 9.2e-05 s⁻¹

Variant: G9A G32C C67U
- self-cleavage kobs at 160 uM GlcN6P [1]: < 1e-05 s⁻¹
- self-cleavage kobs at 640 uM GlcN6P [2]: < 1e-05 s⁻¹

Variant: G51U C70A
- self-cleavage kobs at 640 uM GlcN6P [2]: 5.2e-05 ± 1.5e-05 s⁻¹

Variant: A12U C34U A36U U55G
- self-cleavage kobs at 160 uM GlcN6P [1]: < 1e-05 s⁻¹
- self-cleavage kobs at 640 uM GlcN6P [2]: < 1e-05 s⁻¹
- self-cleavage kobs at 10000 uM GlcN6P [4]: < 1e-05 s⁻¹

Variant: A6G C11G G13C C61G
- self-cleavage kobs at 640 uM GlcN6P [2]: < 1e-05 s⁻¹
- self-cleavage kobs at 2500 uM GlcN6P [3]: < 1e-05 s⁻¹

Variant: U30C U69A
- self-cleavage kobs at 160 uM GlcN6P [1]: 5.29e-05 ± 1.5e-05 s⁻¹
- self-cleavage kobs at 640 uM GlcN6P [2]: 0.000111 ± 3e-05 s⁻¹
- self-cleavage kobs at 2500 uM GlcN6P [3]: 5.71e-05 ± 1.2e-05 s⁻¹
- self-cleavage kobs at 10000 uM GlcN6P [4]: 2.76e-05 ± 6.9e-06 s⁻¹

Variant: G7C G43U A53C G66U
- self-cleavage kobs at 640 uM GlcN6P [2]: < 1e-05 s⁻¹

Variant: C10G A33C G37A G59U
- self-cleavage kobs at 640 uM GlcN6P [2]: < 1e-05 s⁻¹
- self-cleavage kobs at 2500 uM GlcN6P [3]: < 1e-05 s⁻¹

Variant: G9C U56C C67U C71G
- self-cleavage kobs at 160 uM GlcN6P [1]: < 1e-05 s⁻¹
- self-cleavage kobs at 640 uM GlcN6P [2]: < 1e-05 s⁻¹
- self-cleavage kobs at 2500 uM GlcN6P [3]: < 1e-05 s⁻¹

Variant: G35A C50U C67G C70U
- self-cleavage kobs at 640 uM GlcN6P [2]: < 1e-05 s⁻¹

Variant: A39U G40C U46C
- self-cleavage kobs at 160 uM GlcN6P [1]: 5.92e-05 ± 1.4e-05 s⁻¹
- self-cleavage kobs at 640 uM GlcN6P [2]: 0.000338 ± 5.3e-05 s⁻¹
- self-cleavage kobs at 2500 uM GlcN6P [3]: 0.000277 ± 7.4e-05 s⁻¹

Variant: G43A U54C U69G
- self-cleavage kobs at 160 uM GlcN6P [1]: < 1e-05 s⁻¹
- self-cleavage kobs at 640 uM GlcN6P [2]: < 1e-05 s⁻¹
- self-cleavage kobs at 10000 uM GlcN6P [4]: < 1e-05 s⁻¹

Variant: G40C G59U
- self-cleavage kobs at 160 uM GlcN6P [1]: < 1e-05 s⁻¹
- self-cleavage kobs at 640 uM GlcN6P [2]: < 1e-05 s⁻¹
- self-cleavage kobs at 2500 uM GlcN6P [3]: < 1e-05 s⁻¹

Variant: A6G A42C
- self-cleavage kobs at 160 uM GlcN6P [1]: < 1e-05 s⁻¹
- self-cleavage kobs at 640 uM GlcN6P [2]: < 1e-05 s⁻¹
- self-cleavage kobs at 2500 uM GlcN6P [3]: < 1e-05 s⁻¹
- self-cleavage kobs at 10000 uM GlcN6P [4]: < 1e-05 s⁻¹

Variant: C16A A33U A36C A39C G43U
- self-cleavage kobs at 160 uM GlcN6P [1]: < 1e-05 s⁻¹

Variant: G7C G29U A33G
- self-cleavage kobs at 160 uM GlcN6P [1]: < 1e-05 s⁻¹
- self-cleavage kobs at 640 uM GlcN6P [2]: < 1e-05 s⁻¹

Variant: G37C G43C U47C
- self-cleavage kobs at 160 uM GlcN6P [1]: < 1e-05 s⁻¹
- self-cleavage kobs at 2500 uM GlcN6P [3]: < 1e-05 s⁻¹

Variant: C16A G59A C70G
- self-cleavage kobs at 160 uM GlcN6P [1]: 9.32e-05 ± 3.1e-05 s⁻¹

Variant: G35A C50G G59C U65G
- self-cleavage kobs at 160 uM GlcN6P [1]: 4.37e-05 ± 1.9e-05 s⁻¹
- self-cleavage kobs at 640 uM GlcN6P [2]: < 1e-05 s⁻¹

Variant: C10A U56C
- self-cleavage kobs at 160 uM GlcN6P [1]: < 1e-05 s⁻¹
- self-cleavage kobs at 640 uM GlcN6P [2]: < 1e-05 s⁻¹
- self-cleavage kobs at 2500 uM GlcN6P [3]: < 1e-05 s⁻¹

Variant: C8U G35U G62C
- self-cleavage kobs at 160 uM GlcN6P [1]: < 1e-05 s⁻¹
- self-cleavage kobs at 640 uM GlcN6P [2]: < 1e-05 s⁻¹
- self-cleavage kobs at 2500 uM GlcN6P [3]: < 1e-05 s⁻¹

Variant: G9A G32A G43C U56C C68U
- self-cleavage kobs at 160 uM GlcN6P [1]: < 1e-05 s⁻¹
- self-cleavage kobs at 640 uM GlcN6P [2]: < 1e-05 s⁻¹
- self-cleavage kobs at 2500 uM GlcN6P [3]: < 1e-05 s⁻¹

Variant: G9U G40A A52U
- self-cleavage kobs at 160 uM GlcN6P [1]: < 1e-05 s⁻¹
- self-cleavage kobs at 2500 uM GlcN6P [3]: < 1e-05 s⁻¹

Variant: G59U G60A
- self-cleavage kobs at 160 uM GlcN6P [1]: < 1e-05 s⁻¹
- self-cleavage kobs at 640 uM GlcN6P [2]: < 1e-05 s⁻¹

Variant: G7U G35U A42G
- self-cleavage kobs at 640 uM GlcN6P [2]: < 1e-05 s⁻¹
- self-cleavage kobs at 2500 uM GlcN6P [3]: < 1e-05 s⁻¹

Variant: U30C U31A U45A
- self-cleavage kobs at 640 uM GlcN6P [2]: 0.00111 ± 0.00052 s⁻¹
- self-cleavage kobs at 2500 uM GlcN6P [3]: 0.000661 ± 0.0003 s⁻¹

Variant: C50G A53U
- self-cleavage kobs at 160 uM GlcN6P [1]: 0.00155 ± 0.00063 s⁻¹

Variant: A36C G51A C70G
- self-cleavage kobs at 640 uM GlcN6P [2]: 9.36e-05 ± 3.3e-05 s⁻¹

Variant: C8U G63A
- self-cleavage kobs at 160 uM GlcN6P [1]: < 1e-05 s⁻¹
- self-cleavage kobs at 2500 uM GlcN6P [3]: < 1e-05 s⁻¹
- self-cleavage kobs at 10000 uM GlcN6P [4]: < 1e-05 s⁻¹

Variant: U45A A52U U65G
- self-cleavage kobs at 160 uM GlcN6P [1]: < 1e-05 s⁻¹
- self-cleavage kobs at 640 uM GlcN6P [2]: < 1e-05 s⁻¹

Variant: A42U G44C
- self-cleavage kobs at 640 uM GlcN6P [2]: < 1e-05 s⁻¹
- self-cleavage kobs at 2500 uM GlcN6P [3]: < 1e-05 s⁻¹
- self-cleavage kobs at 10000 uM GlcN6P [4]: < 1e-05 s⁻¹

Variant: G35C A36G U49A
- self-cleavage kobs at 160 uM GlcN6P [1]: < 1e-05 s⁻¹
- self-cleavage kobs at 640 uM GlcN6P [2]: < 1e-05 s⁻¹
- self-cleavage kobs at 2500 uM GlcN6P [3]: < 1e-05 s⁻¹

Variant: A6U G44U G51U U54A
- self-cleavage kobs at 640 uM GlcN6P [2]: < 1e-05 s⁻¹
- self-cleavage kobs at 2500 uM GlcN6P [3]: < 1e-05 s⁻¹

Variant: C10G C34G G38A U47A
- self-cleavage kobs at 160 uM GlcN6P [1]: < 1e-05 s⁻¹

Variant: G29A G44U U54A U57A C61U C68A
- self-cleavage kobs at 640 uM GlcN6P [2]: < 1e-05 s⁻¹
- self-cleavage kobs at 2500 uM GlcN6P [3]: < 1e-05 s⁻¹

Variant: G9C C10U G41A G43U
- self-cleavage kobs at 160 uM GlcN6P [1]: < 1e-05 s⁻¹
- self-cleavage kobs at 640 uM GlcN6P [2]: < 1e-05 s⁻¹

Variant: C8U G9A A15U A39G
- self-cleavage kobs at 640 uM GlcN6P [2]: < 1e-05 s⁻¹
- self-cleavage kobs at 2500 uM GlcN6P [3]: < 1e-05 s⁻¹

Variant: A33U G60A A64G
- self-cleavage kobs at 640 uM GlcN6P [2]: < 1e-05 s⁻¹
- self-cleavage kobs at 2500 uM GlcN6P [3]: < 1e-05 s⁻¹

Variant: U31A G32A G59U G62A
- self-cleavage kobs at 640 uM GlcN6P [2]: < 1e-05 s⁻¹

Variant: G7U A15U U47G
- self-cleavage kobs at 640 uM GlcN6P [2]: < 1e-05 s⁻¹

Variant: U49A A52U U65A U69G
- self-cleavage kobs at 160 uM GlcN6P [1]: 7.53e-05 ± 2.4e-05 s⁻¹
- self-cleavage kobs at 640 uM GlcN6P [2]: 0.00031 ± 0.00012 s⁻¹

Variant: C8G C10U A14G C34A U69G
- self-cleavage kobs at 640 uM GlcN6P [2]: 0.000745 ± 0.00024 s⁻¹
- self-cleavage kobs at 2500 uM GlcN6P [3]: < 1e-05 s⁻¹

Variant: A12G U46G C58G G63U U69A
- self-cleavage kobs at 640 uM GlcN6P [2]: 0.000158 ± 6.3e-05 s⁻¹

Variant: A12U C58A G60U
- self-cleavage kobs at 160 uM GlcN6P [1]: < 1e-05 s⁻¹
- self-cleavage kobs at 640 uM GlcN6P [2]: < 1e-05 s⁻¹

Variant: G13U G32U C34A G44A
- self-cleavage kobs at 160 uM GlcN6P [1]: < 1e-05 s⁻¹
- self-cleavage kobs at 2500 uM GlcN6P [3]: < 1e-05 s⁻¹

Variant: G40C A64U
- self-cleavage kobs at 160 uM GlcN6P [1]: < 1e-05 s⁻¹
- self-cleavage kobs at 640 uM GlcN6P [2]: < 1e-05 s⁻¹

Variant: C16U A36U G59U A64U
- self-cleavage kobs at 640 uM GlcN6P [2]: < 1e-05 s⁻¹

Variant: C8U C11A
- self-cleavage kobs at 640 uM GlcN6P [2]: < 1e-05 s⁻¹
- self-cleavage kobs at 10000 uM GlcN6P [4]: < 1e-05 s⁻¹

Variant: A33G G41A C70A
- self-cleavage kobs at 160 uM GlcN6P [1]: < 1e-05 s⁻¹
- self-cleavage kobs at 640 uM GlcN6P [2]: < 1e-05 s⁻¹
- self-cleavage kobs at 10000 uM GlcN6P [4]: < 1e-05 s⁻¹
